Protein stability index data for 27 sequences are collected here from the supplement of paper PMC9732359.

± gives the uncertainty stated by the source.

The series can be described thus: protein stability index of a GFP-peptide fusion (yeast GPS) (PSI 1-4); higher = more stable; sorted into four equal gates, so the index is relative within each strain. The essentials:
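For each peptide, the protein stability index sums the read frequency in every gate after multiplying it by the gate number. Read frequencies came from plasmids that were PCR-amplified from each gate and Illumina-sequenced, with reads assigned to strains by barcodes. The gates were four equal bins of GFP/Cherry fluorescence ratio applied to mid-log yeast in leucine-free medium carrying a pooled library of tiled 17-residue yeast protein peptides fused downstream of GFP on a Cherry-expressing plasmid.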

In turn, KWDITTRNSNNLAIVEL [BRR2] returned a protein stability index (doa10∆) of 3.16 ± 0.071, a protein stability index (pdr5∆) of 2.83 ± 0.059, a protein stability index (san1∆) of 3.21 ± 0.051 and a protein stability index (ubr1∆) of 3.54 ± 0.064.
In the same order, the values of KYCEIMGDNSQLDFTEF [SNF2] are 3.16 ± 0.085, 3.2 ± 0.11, 2.87 ± 0.1 and 3.29 ± 0.073.
On the same counts, the results for KYHYKEEWLNTKDPDEQ [CSN9] are 2.86 ± 0.086, 3.05 ± 0.099, 3.05 ± 0.057 and 3.05 ± 0.093.
On the same counts, the results for KYLEQVLDHQRAIPFRR [RPL17A] are 2.52 ± 0.059, 2.35 ± 0.055, 1.61 ± 0.083 and 1.78 ± 0.043.
As to KYLPHAILKLLENMPHP [PRP8], the protein stability index turned out to be 2 ± 0.081 (doa10∆), 1.46 ± 0.056 (pdr5∆), 1.67 ± 0.1 (san1∆) and 1.61 ± 0.042 (ubr1∆).
On the same counts, the results for LAAIVSTVIEEFTLFMD [YGL172W/NUP49] are 2.21 ± 0.052, 2.56 ± 0.061, 2.1 ± 0.074 and 2.42 ± 0.055.
In the case of LAALNVWYGLSDGEDGH [SSN2], the protein stability index (doa10∆) came to 3.19 ± 0.12, the protein stability index (pdr5∆) worked out at 3.39 ± 0.11, the protein stability index (san1∆) is 3.04 ± 0.067 and the protein stability index (ubr1∆) amounted to 3.12 ± 0.077.
In the same order, the values of LAEEKIRAAGGVVELIA [RPL28] are 2.919 ± 0.025, 3.072 ± 0.024, 2.935 ± 0.023 and 2.931 ± 0.02.
Take LAEEVVDNIVNKYQYSL [SRP68]: the protein stability index by setting is: (doa10∆) 3.09 ± 0.069; (pdr5∆) 2.98 ± 0.069; (san1∆) 2.82 ± 0.056; (ubr1∆) 2.92 ± 0.046.
Regarding LAHYVVTAKLLGFTPGE [FAS1], the protein stability index (doa10∆) amounted to 1.6 ± 0.13, the protein stability index (pdr5∆) was 1.28 ± 0.082 and the protein stability index (ubr1∆) was determined as 1.48 ± 0.12.
LAIADVETKLETKVDEL [DSN1]: the protein stability index is, setting by setting: (doa10∆) 3.04 ± 0.084; (pdr5∆) 3.09 ± 0.074; (san1∆) 3.19 ± 0.05; (ubr1∆) 2.85 ± 0.087.
LAKIKEEEMAPYYKYLC [RPN7]: the protein stability index runs as follows: (doa10∆) 1.28 ± 0.091; (pdr5∆) 1.74 ± 0.25; (ubr1∆) 1.37 ± 0.2.
LAKSGSTEETTANTGTI [TAF14]: the protein stability index (doa10∆) is 2.61 ± 0.08, the protein stability index (pdr5∆) worked out at 2.27 ± 0.089, the protein stability index (san1∆) turned out to be 2.19 ± 0.14 and the protein stability index (ubr1∆) came to 2.39 ± 0.091.
On the same counts, the results for LALETVLIKMVKMLRDN [SIR3] are 2.26 ± 0.11, 2.06 ± 0.074, 2.08 ± 0.079 and 1.77 ± 0.092.
On to LAMNDDDFLSKKRKAGR [SNF2], for which the protein stability index (doa10∆) was 3.41 ± 0.11, the protein stability index (pdr5∆) is 3.58 ± 0.084, the protein stability index (san1∆) worked out at 3.16 ± 0.1 and the protein stability index (ubr1∆) turned out to be 3.52 ± 0.091.
In the same order, the values of LANNVESKLRDDLERLK [RPS18A] are 3.45 ± 0.16, 3.27 ± 0.16, 2.97 ± 0.24 and 3.41 ± 0.049.
On the same counts, the results for LAPARVRRRFARGMTSK [RPS15] are 2.99 ± 0.1, 3.17 ± 0.094, 3.11 ± 0.096 and 3.03 ± 0.082.
In the same order, the values of LAPNMQLNGNETFSTSA [SNF2] are 3.15 ± 0.14, 3.17 ± 0.11, 3.29 ± 0.068 and 2.92 ± 0.096.
LASPEVKVHMDSETSDP [DIS3]: the protein stability index runs as follows: (doa10∆) 3.09 ± 0.082; (pdr5∆) 3.38 ± 0.071; (san1∆) 3.03 ± 0.071; (ubr1∆) 3.12 ± 0.051.
In the case of LATDVTTLNEMFRYKTN [PUP3], the protein stability index by setting is: (doa10∆) 1.85 ± 0.14; (pdr5∆) 2.72 ± 0.11; (san1∆) 1.91 ± 0.077; (ubr1∆) 2.53 ± 0.1.
In the case of LATYGLTIDDLGVASFH [FAS2], the protein stability index runs as follows: (doa10∆) 2.97 ± 0.055; (pdr5∆) 3.11 ± 0.053; (san1∆) 2.92 ± 0.044; (ubr1∆) 3.11 ± 0.036.
Regarding LAVCDELGNMTMLITGQ [SIN4], the protein stability index came to 2.21 ± 0.06 (doa10∆), 2.55 ± 0.046 (pdr5∆), 2.23 ± 0.061 (san1∆) and 2.02 ± 0.045 (ubr1∆).
LAVTNLLIISCIIFITF [YML031W/NDC1]: the protein stability index is 1.34 ± 0.034 (doa10∆), 1.53 ± 0.034 (pdr5∆), 1.42 ± 0.061 (san1∆) and 1.55 ± 0.03 (ubr1∆).
On to LAYENKITDKEDLLHYI [POP4], for which the protein stability index (doa10∆) was 3.35 ± 0.15, the protein stability index (pdr5∆) was determined as 3.31 ± 0.068, the protein stability index (san1∆) amounted to 3.2 ± 0.068 and the protein stability index (ubr1∆) came out at 3.24 ± 0.088.
As for LCEEYLVNNGQSDLEHD [RPN7], the protein stability index is, setting by setting: (doa10∆) 2.78 ± 0.11; (pdr5∆) 2.63 ± 0.11; (san1∆) 2.66 ± 0.081; (ubr1∆) 2.48 ± 0.12.
On the same counts, the results for LCTLNDSKGSLYSVKFA [YGL100W/SEH1] are 2.94 ± 0.13, 2.84 ± 0.093, 2.62 ± 0.058 and 2.49 ± 0.071.
As to LDAIDDFIQLKQTAAYR [SSN2], the protein stability index (ubr1∆) was 3.23 ± 0.22.
